The data set has as its system Bacillus subtilis. Briefly: cleaved RNA product abundance (RNA/gDNA barcode ratio) relative to median wild-type variant (ratio to wild type); higher = more accumulation of the downstream cleavage product. The following applies: cleavage site: cggR-gapA (positions -7 to +36 mutated). The method, then: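 MPRA in B. subtilis. Mutagenized RNase Y cleavage-site regions (9% mutation rate) were inserted into a barcoded reporter mRNA (truncated aprE or tetM). Cells were grown in LB at 37°C to OD600 0.3. The cleaved RNA isoform was gel-purified and its barcodes counted; the RNA:gDNA barcode ratio was normalised to the median wild-type variant, and the median over barcodes is reported per variant. The printed sequence is the variable window only; the reporter flanks are not printed.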

[1] abbreviates: experiment (reporter, strain, medium): exp 4a: truncated aprE reporter, strain BJT201 with 2% xylose (RNase J1 expressed).
Setting [2] is: experiment (reporter, strain, medium): exp 2b: truncated aprE reporter, strain BJT200.
[3] abbreviates: experiment (reporter, strain, medium): exp 6: tetM reporter, strain 168.

“ACAGACGAAGGAGCCGCAAAGAAATTATCAAGGGATGAATAATCCCTCAATATAAATATCTCTCACTTATTTAAA”: the “cleaved RNA product abundance” value under setting [1] was determined as 0.475. Still for that read-out and setting: the same measure for “ACAGACGAAGGAGCCGCAAAGAAATTATGAAGGGATGAATAATCCCTCAATATAAATATCTCTCACTTATTTAAA”: 0.386; for “ACAGACGAAGGAGCCGCAAAGAAATTATTAAAAGATGAATAATCCCTCAATATAAATATCTCTCACTTATTTAAA”: 0.083. As for “ACAGACGAAGGAGCCGCAAAGAAATTATTAAAGGATGAATAATCCCTCAATATAAATATCTCTCACTTATTTAAA”, the “cleaved RNA product abundance” value runs as follows: under setting [2], 0.144; under setting [1], 0.221. For the sequence “ACAGACGAAGGAGCCGCAAAGAAATTATTAAAGGATTAATAATCCCTCAATATAAATATCTCTCACTTATTTAAA”, the “cleaved RNA product abundance” value under setting [1] stood at 0.142.

Consider “ACAGACGAAGGAGCCGCAAAGAAATTATTAACGGATGAATAATCCCTCAATATAAATATCTCTCACTTATTTAAA”, for which the “cleaved RNA product abundance” value is, setting by setting: under setting [2], 0.142; under setting [1], 0.168.

For the sequence “ACAGACGAAGGAGCCGCAAAGAAATTATTAAGAGATGAATAATCCCTCAAAATAAATATCTCTCACTTATTTAAA”, the “cleaved RNA product abundance” value under setting [2] turned out to be 0.114. In the case of “ACAGACGAAGGAGCCGCAAAGAAATTATTAAGAGATGAATAATCCCTCAATATAAATATCTCTCACTTATTTAAA”, the “cleaved RNA product abundance” value was found to be 0.121 under setting [2] and 0.112 under setting [1]. For the sequence “ACAGACGAAGGAGCCGCAAAGAAATTATTAAGAGATGAATAATCCCTCTATATAAATATCTCTCACTTATTTAAA”, the “cleaved RNA product abundance” value under setting [1] worked out at 0.117. Regarding “ACAGACGAAGGAGCCGCAAAGAAATTATTAAGAGATGAATTATCCCTCAATATAAATATCTCTCACTTATTTAAA”, the “cleaved RNA product abundance” value under setting [1] worked out at 0.121. The same measure, in the same setting: the same measure for “ACAGACGAAGGAGCCGCAAAGAAATTATTAAGCGATGAATAATCACTCAATATAAATATCTCTCACTTATTTAAA”: 0.184. Regarding “ACAGACGAAGGAGCCGCAAAGAAATTATTAAGCGATGAATAATCCCTCAATATAAATATCTCTCACTTATTTAAA”, the “cleaved RNA product abundance” value runs as follows: under setting [2], 0.096; under setting [1], 0.121.

Regarding “ACAGACGAAGGAGCCGCAAAGAAATTATTAAGCGATTAATAATCCCTCAATATAAATATCTCTCACTTATTTAAA”, the “cleaved RNA product abundance” value under setting [1] was determined as 0.0984. In the case of “ACAGACGAAGGAGCCGCAAAGAAATTATTAAGGAATGAATAATCCCTCAATATAAATATCTCTCACTTATTTAAA”, the “cleaved RNA product abundance” value by setting is: under setting [2], 0.101; under setting [1], 0.191; under setting [3], 0.104. For the sequence “ACAGACGAAGGAGCCGCAAAGAAATTATTAAGGAATGAATAATCCTTCAATATAAATATCTCTCACTTATTTAAA”, the “cleaved RNA product abundance” value under setting [1] worked out at 0.153.

Consider “ACAGACGAAGGAGCCGCAAAGAAATTATTAAGGCATGAATAATCCCTCAATATAAATATCTCTCACTTATTTAAA”, for which the “cleaved RNA product abundance” value amounted to 0.109 under setting [2] and 0.122 under setting [1]. Turning to “ACAGACGAAGGAGCCGCAAAGAAATTATTAAGGGAAGAATAATCCCTCAATATAAATATCTCTCACTTATTTAAA”, the “cleaved RNA product abundance” value under setting [2] was found to be 0.394 and the “cleaved RNA product abundance” value under setting [1] turned out to be 0.599. For “ACAGACGAAGGAGCCGCAAAGAAATTATTAAGGGACGAATAATCCCTCAATATAAATATCTCTCACTTATTTAAA”, the “cleaved RNA product abundance” value under setting [2] amounted to 0.392 and the “cleaved RNA product abundance” value under setting [1] turned out to be 0.596. Take “ACAGACGAAGGAGCCGCAAAGAAATTATTAAGGGATAAATAATCCATCAATATAAATATCTCTCACTTATTTAAA”: the “cleaved RNA product abundance” value under setting [1] is 0.216. As to “ACAGACGAAGGAGCCGCAAAGAAATTATTAAGGGATAAATAATCCCTCAATATAAATATCTCTCACTTATTTAAA”, the “cleaved RNA product abundance” value runs as follows: under setting [2], 0.818; under setting [1], 0.761; under setting [3], 1.1. As for “ACAGACGAAGGAGCCGCAAAGAAATTATTAAGGGATCAATAATCCCTCAATATAAATATCTCTCACTTATTTAAA”, under setting [2], the “cleaved RNA product abundance” value was found to be 0.646. For the sequence “ACAGACGAAGGAGCCGCAAAGAAATTATTAAGGGATGAAAAATCCCTCAATATAAATATCTCTCACTTATTTAAA”, the “cleaved RNA product abundance” value under setting [2] is 0.852 and the “cleaved RNA product abundance” value under setting [1] came to 0.598. On the same counts, the results for “ACAGACGAAGGAGCCGCAAAGAAATTATTAAGGGATGAATAAACCCTCAATATAAATATCTCTCACTTATTTAAA” are 0.405 and 0.49. Turning to “ACAGACGAAGGAGCCGCAAAGAAATTATTAAGGGATGAATAACCCCTCAATATAAATATCTCTCACTTATTTAAA”, the “cleaved RNA product abundance” value under setting [1] turned out to be 0.671. Still for that read-out and setting: the same measure for “ACAGACGAAGGAGCCGCAAAGAAATTATTAAGGGATGAATAAGCCCTCAATATAAATATCTCTCACTTATTTAAA”: 0.416; for “ACAGACGAAGGAGCCGCAAAGAAATTATTAAGGGATGAATAATAACTCAATATAAATATCTCTCACTTATTTAAA”: 0.168. As to “ACAGACGAAGGAGCCGCAAAGAAATTATTAAGGGATGAATAATACCTCAATATAAATATCTCTCACTTATTTAAA”, the “cleaved RNA product abundance” value is, setting by setting: under setting [2], 0.141; under setting [1], 0.153. As for “ACAGACGAAGGAGCCGCAAAGAAATTATTAAGGGATGAATAATCACTCAATATAAATATCTCTCACTTATTTAAA”, the “cleaved RNA product abundance” value reads like this: under setting [2], 0.136; under setting [1], 0.122. Regarding “ACAGACGAAGGAGCCGCAAAGAAATTATTAAGGGATGAATAATCCATCAAGATAAATATCTCTCACTTATTTAAA”, the “cleaved RNA product abundance” value under setting [1] was 0.118. For “ACAGACGAAGGAGCCGCAAAGAAATTATTAAGGGATGAATAATCCATCAATATAAATATCTCTCACTTATTTAAA”, the “cleaved RNA product abundance” value was 0.163 under setting [2] and 0.201 under setting [1]. Turning to “ACAGACGAAGGAGCCGCAAAGAAATTATTAAGGGATGAATAATCCCACAATATAAATATCTCTCACTTATTTAAA”, the “cleaved RNA product abundance” value was 0.195 under setting [2] and 0.298 under setting [1]. As to “ACAGACGAAGGAGCCGCAAAGAAATTATTAAGGGATGAATAATCCCCCAATATAAATATCTCTCACTTATTTAAA”, the “cleaved RNA product abundance” value under setting [1] came to 0.465. Still for that read-out and setting: the result for “ACAGACGAAGGAGCCGCAAAGAAATTATTAAGGGATGAATAATCCCGCAATATAAATATCTCTCACTTATTTAAA” reads 0.214. For the sequence “ACAGACGAAGGAGCCGCAAAGAAATTATTAAGGGATGAATAATCCCTAAATATAAATATCTCTCACTTATTTAAA”, the “cleaved RNA product abundance” value by setting is: under setting [2], 0.458; under setting [1], 0.667. On the same counts, the results for “ACAGACGAAGGAGCCGCAAAGAAATTATTAAGGGATGAATAATCCCTCAAAATAAATATCTCTCACTTATTTAAA” are 0.257 and 0.365. On to “ACAGACGAAGGAGCCGCAAAGAAATTATTAAGGGATGAATAATCCCTCAACATAAATATCTCTCACTTATTTAAA”, for which the “cleaved RNA product abundance” value under setting [1] was 0.234.

On to “ACAGACGAAGGAGCCGCAAAGAAATTATTAAGGGATGAATAATCCCTCAAGATAAATATCTCTCACTTATTTAAA”, for which the “cleaved RNA product abundance” value came to 0.188 under setting [2] and 0.189 under setting [1].

Regarding “ACAGACGAAGGAGCCGCAAAGAAATTATTAAGGGATGAATAATCCCTCAATAAAAATATCTCTCACTTATTTAAA”, the “cleaved RNA product abundance” value under setting [2] worked out at 0.178. Take “ACAGACGAAGGAGCCGCAAAGAAATTATTAAGGGATGAATAATCCCTCAATATAAAAATCTCTCACTTATTTAAA”: the “cleaved RNA product abundance” value under setting [1] worked out at 0.568. In the case of “ACAGACGAAGGAGCCGCAAAGAAATTATTAAGGGATGAATAATCCCTCAATATAAATAGCTCTCACTTATTTAAA”, the “cleaved RNA product abundance” value under setting [1] was 0.435. As for “ACAGACGAAGGAGCCGCAAAGAAATTATTAAGGGATGAATAATCCCTCAATATAAATATATCTCACTTATTTAAA”, the “cleaved RNA product abundance” value under setting [1] stood at 1.19.

Turning to “ACAGACGAAGGAGCCGCAAAGAAATTATTAAGGGATGAATAATCCCTCAATATAAATATCTCTCACTTATTTAAA”, the “cleaved RNA product abundance” value by setting is: under setting [2], 0.826; under setting [1], 0.783; under setting [3], 0.759. Consider “ACAGACGAAGGAGCCGCAAAGAAATTATTAAGGGATGAATAATCCCTCAATATAAATCTCTCTCACTTATTTAAA”, for which the “cleaved RNA product abundance” value under setting [1] came out at 0.66. Still for that read-out and setting: the same measure for “ACAGACGAAGGAGCCGCAAAGAAATTATTAAGGGATGAATAATCCCTCAATATAAATTTCTCTCACTTATTTAAA”: 0.361; for “ACAGACGAAGGAGCCGCAAAGAAATTATTAAGGGATGAATAATCCCTCAATATAACTATCTCTCACTTATTTAAA”: 0.325.

Turning to “ACAGACGAAGGAGCCGCAAAGAAATTATTAAGGGATGAATAATCCCTCAATATACATATCTCTCACTTATTTAAA”, the “cleaved RNA product abundance” value under setting [1] stood at 0.46. On the same count and under the same terms, the result for “ACAGACGAAGGAGCCGCAAAGAAATTATTAAGGGATGAATAATCCCTCAATATAGATATCTCTCACTTATTTAAA” reads 0.474; that for “ACAGACGAAGGAGCCGCAAAGAAATTATTAAGGGATGAATAATCCCTCAATATATATATCTCTCACTTATTTAAA”, 0.766; that for “ACAGACGAAGGAGCCGCAAAGAAATTATTAAGGGATGAATAATCCCTCAATTTAAATATCTCTCACTTATTTAAA”, 0.153. The same measure, in the same setting: the same measure for “ACAGACGAAGGAGCCGCAAAGAAATTATTAAGGGATGAATAATCCCTCAGTATAAATATCTCTCACTTATTTAAA”: 0.215.

For the sequence “ACAGACGAAGGAGCCGCAAAGAAATTATTAAGGGATGAATAATCCCTCATTATAAATATCTCTCACTTATTTAAA”, the “cleaved RNA product abundance” value under setting [2] was determined as 0.197 and the “cleaved RNA product abundance” value under setting [1] was determined as 0.514.

Values taken from the supplement of paper PMC11780869.
